Source: US20120258109A1 (Eli Lilly, published 2012)

Key:
Rat TGF-alpha [1] = target: T1, Rat TGF-alpha (rat, UniProt P01134 39-88); experiment: SPR (Biacore), antibody captured by anti-human Fc, ligand in solution, 25 C
Experimental: (§1) Biacore T2000 instrument (BIAcore® AB, Upsala, Sweden), reagents and Biacore T2000 Evaluation Software Ver 4.1 are used for the Surface Plasmon Resonance analysis. A CM5 chip is prepared using manufacturer's EDC/NHS amine coupling method. The surfaces of all four flow cells are activated by injecting a 1:1 mixture of EDC/NHS for 7 minutes at 10 μL/min. Goat anti-human Fc γ specific antibody is diluted to 50 μg/ml in 10 mM acetate, pH 4.0 buffer and immobilized for approximately 10000 RU onto all four flow cells by 7 minute injection at a flow rate of 10 μL/min. Un-reacted sites are blocked with a 7 minute injection of ethanolamine at 10 μL/min. Injections of 3×20 seconds of glycine pH 1.5 at 30 μL/min are used to remove non-covalently associated protein. The running buffer is HBS-EP [10 mM HEPES, 150 mM Sodium Chloride, 3 mM EDTA, 0.005% Polysorbate 20].
(§2) Duplicate injections of each ligand concentration are injected at 30 μL/min for 300 seconds followed by a dissociation phase. […] Regeneration is performed by injecting 10 mM glycine pH 1.5 for 3×20 seconds at 30 μL/min over all flowcell.
(§3) Reference-subtracted data are collected as Fc2−Fc1. The measurements are obtained at 25° C. The on-rate (kₒₙ) and off-rate (koff) for each ligand are evaluated using a “1:1 (Langmuir) Binding” binding model. The affinity (KD) is calculated from the binding kinetics according to the relationship: KD=koff/kₒₙ.

Mouse Epiregulin [2] = target: T2, Mouse Epiregulin (mouse, UniProt Q61521 56-101); experiment: as above
Experimental: as §1, §2, §3

Cynomolgus Epiregulin = Cynomolgus Epiregulin (cynomolgus, UniProt O14944 63-108 (human entry), limits assumed); experiment: as above
Experimental: as §1, §2, §3

Met-human Epiregulin [3] = target: T3, Met-human Epiregulin (human, UniProt O14944 63-108); experiment: as above
T3 construct: also called EREG; human met-Epiregulin
Experimental: as §1, §2, §3

Rat TGF-alpha [4] = target: T1, Rat TGF-alpha; experiment: cell-based or functional assay
Mouse Epiregulin [5] = target: T2, Mouse Epiregulin; experiment: cell-based or functional assay
Human Epigen = Human Epigen (human, UniProt Q6UW88 24-104, limits assumed); experiment: cell-based or functional assay
Met-human Epiregulin [6] = target: T3, Met-human Epiregulin; experiment: cell-based or functional assay
Human TGF-alpha = Human TGF-alpha (human, UniProt P01135 40-89); experiment: cell-based or functional assay
Mouse Epiregulin [7] = target: T2, Mouse Epiregulin; experiment: SPR (Biacore), antibody captured on the chip, ligand in solution, 25 C
Experimental: as §1
(§4) Duplicate injections of each ligand concentration are injected at 30 μL/min for 300 seconds followed by a dissociation phase. […] Regeneration is performed by injecting 10 mM glycine pH 1.5 for 30 seconds at 30 μL/min over all flowcell.
as §3

Mouse TGF-alpha = Mouse TGF-alpha (mouse, UniProt P48030 39-88, limits assumed); experiment: as above
Experimental: as §1, §4, §3

Binder	Kd (Rat TGF-alpha [1]) [nM]	Kd (Mouse Epiregulin [2]) [nM]	Kd (Cynomolgus Epiregulin) [nM]	Kd (Met-human Epiregulin [3]) [nM]	IC50 (nM), MFc7 proliferation assay (BrDU), ligand at 0.5 nM (Rat TGF-alpha [4]) [nM]	IC50 (nM), MFc7 proliferation assay (BrDU), ligand at 0.5 nM (Mouse Epiregulin [5]) [nM]	IC50 (nM), MFc7 proliferation assay (BrDU), ligand at 100 nM (Human Epigen) [nM]	IC50 (nM), MFc7 proliferation assay (BrDU), ligand at 0.5 nM (Met-human Epiregulin [6]) [nM]	IC50 (nM), MFc7 proliferation assay (BrDU) (Met-human Epiregulin [6]) [nM]	IC50 (nM), MFc7 proliferation assay (BrDU) (Human TGF-alpha) [nM]	Kd (Mouse Epiregulin [7]) [nM]	koff (Mouse Epiregulin [7]) [s⁻¹]	kon (Mouse Epiregulin [7]) [M⁻¹ s⁻¹]	Kd (Mouse TGF-alpha) [nM]	koff (Mouse TGF-alpha) [s⁻¹]	kon (Mouse TGF-alpha) [M⁻¹ s⁻¹]
Antibody I (antibody, human IgG4 S228P, kappa, F234A L235A, V domains shown) VH: QVQLVQSGAEVKKPGSSVKVSCKASGYTFTDAYINWVRQAPGQGLEWMGWIWPGPVITYYNPKFKGRVTITADKSTSTAYMELSSLRSEDTAVYYCARREVLSPFAYWGQGTTVTVSS VL: DIVMTQSPDSLAVSLGERATINCRSSQSIVHSTGNTYLEWYQQKPGQPPKLLIYKVSNRFSGVPDRFSGSGSGTDFTLTISSLQAEDVAVYYCFHGTHVPYTFGGGTKVEIKR	0.0705	342	1.05	1.29	0.19	334	807	3.15								
Antibody III (antibody, mouse IgG1, kappa, V domains shown, same six CDRs as Antibody I) VH: QVQLQQSGPELVKPGASVKISCKASGYTFTDAYINWVKQRPGQGLEWIGWIWPGPVITYYNPKFKGKATLTVDKSSSTAYMLLSSLTSEDSAFYFCARREVLSPFAYWGQGTLVTVSA VL: DVLMTQTPLSLPVSLGDQASISCRSSQSIVHSTGNTYLEWYLQKPGQSPKLLIYKVSNRFSGVPDRFSGSGSGTDFTLKISRVEAEDLGVYYCFHGTHVPYTFGGGTKLEIKR					0.13	214			1.12	0.52	215	0.0141	65500	0.038	2.02e-05	541000
